Results on 67 sequences are retold here after the supplement of paper PMC10724198.

± gives the standard deviation of the averaged measurements.

The subject of the series is Saccharomyces cerevisiae. Put plainly: protein stability index of tFT-peptide fusion (C-terminal peptide) (PSI (0-1 scale)); higher = more stable (slower turnover). Conditions: temperature: 30 C. As to the method: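 MPS profiling in S. cerevisiae of the yeast C-terminome library: the last 12 aa of each annotated ORF are fused to the C-terminus of a sfGFP-mCherry timer, after a GGGS linker. Cells are FACS-sorted into 8 mCherry/sfGFP bins and deep-sequenced. PSI runs from 0 (unstable) to 1 (stable); wild type and das1Δ backgrounds, two technical replicates each.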

Where [1] appears, read: genetic background: das1 deletion.

In turn, EFAKCEFETPAV [CKB1 C-terminal 12 aa] came in with a protein stability index under setting [1] of 0.722 ± 0.011 and a protein stability index (genetic background: wild type) of 0.74 ± 0.0048.
For EFDLADDRRYDI [TPO5 C-terminal 12 aa], the protein stability index by setting is: under setting [1], 0.705 ± 0.03; (genetic background: wild type) 0.682 ± 0.011.
Consider EGIFPANYVELV [LSB3 C-terminal 12 aa], for which the protein stability index runs as follows: under setting [1], 0.7016 ± 0.0045; (genetic background: wild type) 0.678 ± 0.037.
In turn, EGPVTIILDSDQ [DTD1 C-terminal 12 aa] had a protein stability index under setting [1] of 0.701 ± 0.0098 and a protein stability index (genetic background: wild type) of 0.7015 ± 0.0042.
EKKFKEILNIQW [PET112 C-terminal 12 aa]: the protein stability index amounted to 0.709 ± 0.025 under setting [1] and 0.722 ± 0.01 (genetic background: wild type).
For the sequence EKKYSNNTNAIQ [CTI6 C-terminal 12 aa], the protein stability index is, setting by setting: under setting [1], 0.68042 ± 0.00045; (genetic background: wild type) 0.657 ± 0.024.
EKPEGKDTKTEE [CMK1 C-terminal 12 aa]: the protein stability index under setting [1] is 0.685 ± 0.022 and the protein stability index (genetic background: wild type) worked out at 0.684 ± 0.051.
For EKQSSTASEKAA [THI7 C-terminal 12 aa], the protein stability index worked out at 0.6813 ± 0.0064 under setting [1] and 0.704 ± 0.029 (genetic background: wild type).
As for EKRLQKEIKSIE [IDP1 C-terminal 12 aa], the protein stability index reads like this: under setting [1], 0.734 ± 0.012; (genetic background: wild type) 0.673 ± 0.06.
In the case of ELDEIANSLENL [TPM2 C-terminal 12 aa], the protein stability index under setting [1] was 0.694 ± 0.019 and the protein stability index (genetic background: wild type) came out at 0.683 ± 0.01.
The like results for ELKRKDALSKKI [COA2 C-terminal 12 aa] were, in that order, 0.688 ± 0.048 and 0.75 ± 0.017.
On to ELLQSFSLVLTL [YKL153W C-terminal 12 aa], for which the protein stability index runs as follows: under setting [1], 0.64297 ± 0.00021; (genetic background: wild type) 0.632 ± 0.024.
ELPAQKSTVISE [GEP7 C-terminal 12 aa]: the protein stability index runs as follows: under setting [1], 0.733 ± 0.039; (genetic background: wild type) 0.702 ± 0.039.
For the sequence ELQDALNTELLF [VAC17 C-terminal 12 aa], the protein stability index is 0.7157 ± 0.0042 under setting [1] and 0.699 ± 0.0099 (genetic background: wild type).
In the case of ELTFDVKLVSMK [FPR4 C-terminal 12 aa], the protein stability index is, setting by setting: under setting [1], 0.686 ± 0.0071; (genetic background: wild type) 0.687 ± 0.034.
The like results for ENLRLKLKNFLR [MSH5 C-terminal 12 aa] were, in that order, 0.683 ± 0.0095 and 0.688 ± 0.022.
In the case of ENRTMFLSKGKS [YPR172W C-terminal 12 aa], the protein stability index came to 0.701 ± 0.024 under setting [1] and 0.667 ± 0.016 (genetic background: wild type).
EPKYVDEDDWSD [CEG1 C-terminal 12 aa] returned a protein stability index under setting [1] of 0.69393 ± 0.00048 and a protein stability index (genetic background: wild type) of 0.68 ± 0.02.
EQFTRDFGQEGN [VPS4 C-terminal 12 aa]: the protein stability index reads like this: under setting [1], 0.7187 ± 0.0015; (genetic background: wild type) 0.671 ± 0.016.
For EQLGHASKRHKP [RPP1 C-terminal 12 aa], the protein stability index is 0.694 ± 0.011 under setting [1] and 0.689 ± 0.0075 (genetic background: wild type).
On to ERGMYRYYSLKA [LUG1 C-terminal 12 aa], for which the protein stability index was 0.623 ± 0.028 under setting [1] and 0.621 ± 0.015 (genetic background: wild type).
For the sequence ERLRFYKDTFTL [RRI1 C-terminal 12 aa], the protein stability index is, setting by setting: under setting [1], 0.726 ± 0.0089; (genetic background: wild type) 0.653 ± 0.011.
Consider ERRLSDLQQYHI [TMA10 C-terminal 12 aa], for which the protein stability index reads like this: under setting [1], 0.6982 ± 0.0017; (genetic background: wild type) 0.683 ± 0.02.
In turn, ERVKIGVQFYEE [RTG2 C-terminal 12 aa] showed a protein stability index under setting [1] of 0.708 ± 0.013 and a protein stability index (genetic background: wild type) of 0.736 ± 0.042.
ESDDDMGFGLFD [RPP0 C-terminal 12 aa]: the protein stability index was determined as 0.7176 ± 0.002 under setting [1] and 0.717 ± 0.016 (genetic background: wild type).
Turning to ESHQDKTEEDIH [OKP1 C-terminal 12 aa], the protein stability index reads like this: under setting [1], 0.69113 ± 0.00011; (genetic background: wild type) 0.726 ± 0.035.
As to ESISYLFKNYPL [PRS3 C-terminal 12 aa], the protein stability index worked out at 0.717 ± 0.015 under setting [1] and 0.6937 ± 0.0036 (genetic background: wild type).
Taken in the same sequence, the figures for ESTTDAESKGSK [MRPL11 C-terminal 12 aa] were 0.676 ± 0.015 and 0.706 ± 0.11.
The like results for ETIWTEWHNLKK [DIG2 C-terminal 12 aa] were, in that order, 0.726 ± 0.059 and 0.686 ± 0.0099.
As for “ETRASCLLSRAF [YJL052C-A C-terminal 12 aa]”, the protein stability index runs as follows: under setting [1], 0.6962 ± 0.0034; (genetic background: wild type) 0.698 ± 0.015.
Regarding EVYLQAIDLIDC [PIR3 C-terminal 12 aa], the protein stability index was 0.6774 ± 0.0063 under setting [1] and 0.6614 ± 0.005 (genetic background: wild type).
Turning to EWAEENADNVEW [RPS0A C-terminal 12 aa], the protein stability index was found to be 0.7363 ± 0.0068 under setting [1] and 0.728 ± 0.028 (genetic background: wild type).
For the sequence EWFYEKFLGNIF [DIP5 C-terminal 12 aa], the protein stability index runs as follows: under setting [1], 0.747 ± 0.013; (genetic background: wild type) 0.702 ± 0.014.
On to EWVVPEHMLGPK [FUM1 C-terminal 12 aa], for which the protein stability index under setting [1] was 0.741 ± 0.0091 and the protein stability index (genetic background: wild type) is 0.739 ± 0.041.
For EYGGYGEYGNGS [RTG1 C-terminal 12 aa], the protein stability index turned out to be 0.6949 ± 0.0018 under setting [1] and 0.674 ± 0.0096 (genetic background: wild type).
For the sequence EYTDFMSWMQDN [YER186C C-terminal 12 aa], the protein stability index is 0.74 ± 0.01 under setting [1] and 0.646 ± 0.15 (genetic background: wild type).
Taken in the same sequence, the figures for “FAAPIKPSTRAG [YLR347W-A C-terminal 12 aa]” were 0.6876 ± 0.0016 and 0.71 ± 0.0086.
Taken in the same sequence, the figures for FAQNTNKDVELN [NGG1 C-terminal 12 aa] were 0.682 ± 0.028 and 0.666 ± 0.046.
Turning to FASNKKVTASLR [AZR1 C-terminal 12 aa], the protein stability index runs as follows: under setting [1], 0.696 ± 0.013; (genetic background: wild type) 0.6868 ± 0.00086.
The like results for FDELVRKYDTSN [SEC28 C-terminal 12 aa] were, in that order, 0.718 ± 0.017 and 0.665 ± 0.0076.
The like results for FEFEFFESCYNA [PET18 C-terminal 12 aa] were, in that order, 0.744 ± 0.019 and 0.744 ± 0.038.
With FGIWNTDMSVWS [YBL081W C-terminal 12 aa], the protein stability index reads like this: under setting [1], 0.699 ± 0.017; (genetic background: wild type) 0.7253 ± 0.0045.
With FGKYLPLNYPSE [ASG1 C-terminal 12 aa], the protein stability index by setting is: under setting [1], 0.7167 ± 0.0015; (genetic background: wild type) 0.671 ± 0.015.
As to FGNDMVINFETD [UTP22 C-terminal 12 aa], the protein stability index is 0.7438 ± 0.0026 under setting [1] and 0.731 ± 0.12 (genetic background: wild type).
On to FHLNAKTRESEI [YDL162C C-terminal 12 aa], for which the protein stability index under setting [1] worked out at 0.702 ± 0.012 and the protein stability index (genetic background: wild type) stood at 0.67952 ± 0.00014.
On to FIHDVFFVYFRF [YDL094C C-terminal 12 aa], for which the protein stability index amounted to 0.176 ± 0.0076 under setting [1] and 0.17 ± 0.006 (genetic background: wild type).
In turn, FIKLSLASSFSN [ISF1 C-terminal 12 aa] yielded a protein stability index under setting [1] of 0.7094 ± 0.0028 and a protein stability index (genetic background: wild type) of 0.661 ± 0.022.
Regarding FINKIYHQKVNL [TMN3 C-terminal 12 aa], the protein stability index was found to be 0.707 ± 0.0078 under setting [1] and 0.781 ± 0.004 (genetic background: wild type).
As for FKAKFRKVKINA [YKR015C C-terminal 12 aa], the protein stability index is, setting by setting: under setting [1], 0.6339 ± 0.0053; (genetic background: wild type) 0.134 ± 0.0025.
FKIFCNCIQSLA [YPL199C C-terminal 12 aa]: the protein stability index reads like this: under setting [1], 0.341 ± 0.0075; (genetic background: wild type) 0.323 ± 0.009.
Regarding “FKSTPIIYSNVI [YER006C-A C-terminal 12 aa]”, the protein stability index worked out at 0.724 ± 0.027 under setting [1] and 0.642 ± 0.0074 (genetic background: wild type).
Regarding “FLEIVVPCHCTT [YJL077W-A C-terminal 12 aa]”, the protein stability index runs as follows: under setting [1], 0.539 ± 0.0037; (genetic background: wild type) 0.56 ± 0.021.
On to “FLIWRKKVSRNK [YOR329W-A C-terminal 12 aa]”, for which the protein stability index reads like this: under setting [1], 0.73 ± 0.054; (genetic background: wild type) 0.727 ± 0.11.
With FLNIENPENQSE [RCO1 C-terminal 12 aa], the protein stability index runs as follows: under setting [1], 0.687 ± 0.01; (genetic background: wild type) 0.674 ± 0.018.
Taken in the same sequence, the figures for FLSMTYASLVNK [YLR294C C-terminal 12 aa] were 0.713 ± 0.022 and 0.706 ± 0.062.
FLVLKIIKALLW [MTC4 C-terminal 12 aa] showed a protein stability index under setting [1] of 0.526 ± 0.013 and a protein stability index (genetic background: wild type) of 0.523 ± 0.026.
Regarding FRGKLFLDSITD [MLC2 C-terminal 12 aa], the protein stability index reads like this: under setting [1], 0.724 ± 0.0085; (genetic background: wild type) 0.73 ± 0.034.
FRNYRGHYRGRK [SGS1 C-terminal 12 aa] had a protein stability index under setting [1] of 0.705 ± 0.03 and a protein stability index (genetic background: wild type) of 0.685 ± 0.039.
Take “FSALVLRGVRGE [YBR196C-B C-terminal 12 aa]”: the protein stability index runs as follows: under setting [1], 0.698 ± 0.014; (genetic background: wild type) 0.6769 ± 0.0067.
Taken in the same sequence, the figures for FSDFLDSNRITQ [LDB19 C-terminal 12 aa] were 0.72756 ± 0.00057 and 0.723 ± 0.017.
In the case of FSDWKNNNGPHK [IBA57 C-terminal 12 aa], the protein stability index reads like this: under setting [1], 0.701 ± 0.02; (genetic background: wild type) 0.71 ± 0.062.
For the sequence FSTIDGSIKDIK [FDO1 C-terminal 12 aa], the protein stability index stood at 0.668 ± 0.023 under setting [1] and 0.6865 ± 0.0054 (genetic background: wild type).
On to FTGGDILPPEFN [SPS18 C-terminal 12 aa], for which the protein stability index under setting [1] worked out at 0.7639 ± 0.0048 and the protein stability index (genetic background: wild type) came out at 0.739 ± 0.015.
FTHFTSSKDRKD [SIT1 C-terminal 12 aa] returned a protein stability index under setting [1] of 0.711 ± 0.026 and a protein stability index (genetic background: wild type) of 0.699 ± 0.021.
Regarding FVAKEIADDSKK [TIM12 C-terminal 12 aa], the protein stability index is, setting by setting: under setting [1], 0.684 ± 0.016; (genetic background: wild type) 0.709 ± 0.03.
For the sequence “GAAVAAGVAFLF [YDR524C-B C-terminal 12 aa]”, the protein stability index by setting is: under setting [1], 0.717 ± 0.018; (genetic background: wild type) 0.717 ± 0.044.
Taken in the same sequence, the figures for GAAVRLTGSDRV [RPN7 C-terminal 12 aa] were 0.685 ± 0.007 and 0.679 ± 0.035.
